{
  "source": "paper PMC4755656",
  "about": "“Interaction Analysis of a Two-Component System Using Nanodiscs” (PLoS ONE, 2016)",
  "binders": {"B1": {"name": "response regulator CpxR, His6-tagged (His6-CpxR) (natural protein, E. coli, UniProt P0AE88 1-232, looked up)", "chain": "MNKILLVDDDRELTSLLKELLEMEGFNVIVAHDGEQALDLLDDSIDLLLLDVMMPKKNGIDTLKALRQTHQTPVIMLTARGSELDRVLGLELGADDYLPKPFNDRELVARIRAILRRSHWSEQQQNNDNGSPTLEVDALVLNPGRQEASFDGQTLELTGTEFTLLYLLAQHLGQVVSREHLSQEVLGKRLTPFDRAIDMHISNLRRKLPDRKDGHPWFKTLRGRGYLMVSAS", "notes": "CpxR, response regulator of the Cpx two-component system, E. coli; not shown: His6, N-terminal, kept"}, "B2": {"name": "periplasmic accessory protein CpxP, His6-tagged (His6-CpxP) (natural protein, E. coli, UniProt P0AE85 22-166, looked up)", "chain": "AEVGSGDNWHPGEELTQRSTQSHMFDGISLTEHQRQQMRDLMQQARHEQPPVNVSELETMHRLVTAENFDENAVRAQAEKMANEQIARQVEMAKVRNQMYRLLTPEQQAVLNEKHQQRMEQLRDVTQWQKSSSLKLLSSSNSRSQ", "notes": "CpxP, periplasmic accessory protein of the Cpx two-component system, E. coli; The introduction says, citing other work, that CpxP acts as a homodimer"}},
  "settings_in_all_cases": "both partners purified",
  "key": {"[1]": {"biological_target": "T1, phosphorylated CpxA in nanodiscs (CpxA-P-ND) (E. coli, UniProt P0AE82 1-457, phosphorylated (autophosphorylation with ATP and MgCl2); residue number not given)", "T1 construct": "As m1, phosphorylated; also called phosphorylated CpxA-P-ND; source: E. coli BL21(DE3) pLysS, purified; reconstituted into nanodiscs; phosphorylated by adding ATP and MgCl2 (2 mM Mg2+-ATP present)", "T1 sequence (looked up)": "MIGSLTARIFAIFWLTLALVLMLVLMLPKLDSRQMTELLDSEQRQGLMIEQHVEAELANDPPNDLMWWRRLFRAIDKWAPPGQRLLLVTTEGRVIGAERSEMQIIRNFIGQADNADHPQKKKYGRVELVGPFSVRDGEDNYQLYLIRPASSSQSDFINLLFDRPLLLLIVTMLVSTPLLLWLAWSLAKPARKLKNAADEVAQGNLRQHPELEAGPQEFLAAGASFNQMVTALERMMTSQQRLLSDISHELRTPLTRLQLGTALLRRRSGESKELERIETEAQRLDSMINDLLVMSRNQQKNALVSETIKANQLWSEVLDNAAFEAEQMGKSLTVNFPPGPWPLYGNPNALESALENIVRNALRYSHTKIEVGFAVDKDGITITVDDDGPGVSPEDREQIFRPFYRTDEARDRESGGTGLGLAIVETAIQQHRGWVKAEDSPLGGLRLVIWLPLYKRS", "test": "SPR; as a1, but CpxA-P-ND injected in the presence of 2 mM Mg2+-ATP; constants from Interaction Map analysis (peak assigned to phosphorylated CpxA)"}, "[2]": {"biological_target": "T2, NT-647-labelled CpxA-Strep reconstituted in nanodiscs (CpxA-ND), as used for MST (E. coli, UniProt P0AE82 1-457, NT-647 dye (NHS NT-647 labeling kit; typically one primary amine per protein, position statistical))", "T2 construct": "CpxA sits in a lipid bilayer ringed by two MSP1D1 molecules (1:1 molar ratio of MSP to CpxA); also called labeled CpxA-Strep in nanodiscs; CpxA-Strep nanodiscs; source: E. coli BL21(DE3) pLysS, from pI1CpxA, purified (Strep-Tactin Superflow); labelled, then reconstituted into nanodiscs; not shown: Strep, C-terminal, kept", "T2 sequence (looked up)": "T1 sequence (looked up)", "test": "MST; as a3, with the non-hydrolysable ATP analogue AMP-PNP and MgCl2"}, "[3]": {"biological_target": "T2, NT-647-labelled CpxA-Strep …", "test": "MST; as a3, CpxA-Strep nanodiscs supplemented with 500 µM ATP and 5 mM MgCl2 before mixing with CpxR"}, "[4]": {"biological_target": "T2, NT-647-labelled CpxA-Strep …", "test": "MST; NT-647-labelled CpxA-Strep in nanodiscs (or labelled MSP1D1 in empty nanodiscs) constant at 150 nM; unlabelled CpxR (0.007-237.5 µM) or CpxP (0.01-367.5 µM) titrated; HEPES-buffered saline (20 mM HEPES pH 7.5, 150 mM NaCl), RT; no nucleotide"}, "[5]": {"biological_target": "T2, NT-647-labelled CpxA-Strep …", "test": "MST; as a3, with ADP and MgCl2 (phosphatase-competent state mimicked)"}, "[6]": {"biological_target": "T3, sensor histidine kinase CpxA reconstituted in nanodiscs (CpxA-ND), as used for SPR (E. coli, UniProt P0AE82 1-457)", "T3 construct": "CpxA sits in a lipid bilayer ringed by two MSP1D1 molecules whose His-tag was removed with TEV protease for SPR; one or two dimers per nanodisc; also called CpxA in nanodiscs; source: E. coli BL21(DE3) pLysS, purified from solubilised membranes; reconstituted into nanodiscs (MSP1D1, E. coli total lipid extract, beta-cyclodextrin)", "T3 sequence (looked up)": "T1 sequence (looked up)", "test": "SPR; His6-CpxR (50 nM, about 300 RU) captured on an anti-His antibody chip; CpxA-ND or empty ND injected at 25-1000 nM; HBS (10 mM HEPES pH 7.4, 150 mM NaCl), 25 °C; constants from Interaction Map analysis of the sensorgrams"}},
  "data": [
    {"binder": "B1", "values": [
      {"measurement": "Kd", "setting": "[1]", "value": 24.8, "unit": "nM"},
      {"measurement": "koff", "setting": "[1]", "value": "4.38e-05", "unit": "s⁻¹"},
      {"measurement": "kon", "setting": "[1]", "value": 1760, "unit": "M⁻¹ s⁻¹"},
      {"measurement": "Kd", "setting": "[2]", "value": "110 ± 20", "unit": "nM"},
      {"measurement": "Kd", "setting": "[3]", "value": "550 ± 60", "unit": "nM"},
      {"measurement": "Kd", "setting": "[4]", "value": "3700 ± 500", "unit": "nM"},
      {"measurement": "Kd", "setting": "[5]", "value": "1600 ± 300", "unit": "nM"},
      {"measurement": "Kd", "setting": "[6]", "value": 236, "unit": "nM"},
      {"measurement": "koff", "setting": "[6]", "value": 0.000473, "unit": "s⁻¹"},
      {"measurement": "kon", "setting": "[6]", "value": 2010, "unit": "M⁻¹ s⁻¹"}
    ]},
    {"binder": "B2", "values": [
      {"measurement": "Kd", "setting": "[4]", "value": "> 100000", "unit": "nM"}
    ]}
  ]
}
